In patent US20040077845A1, “Modifier” (priority 2001, published 2004):

How the values were obtained:
bovine serum albumin = target: T1, bovine serum albumin (Bos taurus, UniProt P02769); experiment: galactose content of the protein modified with agarooligosaccharides (hydrolysis, 2-aminopyridine labelling, HPLC); format: biochemical; conditions: reacted with agarooligosaccharides in PBS pH 7.2, 37° C., 24 hours
T1 construct: purchased Sigma A0281
Experimental: A solution containing the agarooligosaccharides as described in Example 1-(1) at a concentration of 100 mg/ml and a solution containing bovine serum albumin (Sigma, A0281) at a concentration of 11.1 mg/ml in PBS (pH 7.2) were mixed at a ratio of 1:9. The mixture was reacted at 37° C. for 24 hours to obtain a modification product of bovine serum albumin.
In order to confirm that the agarooligosaccharides were attached to the proteins, the modification products of the proteins were dialyzed to remove free agarooligosaccharides, and only high molecular weight fractions were collected by HPLC. HPLC was carried out as follows.
The protein concentrations in the separated fractions were determined by measuring the absorbances at 280 nm, and fractions containing the proteins were collected. As a control, unmodified counterparts for both of the proteins were also separated under the same conditions. Next, the galactose contents in the collected protein fractions were measured. […] The reducing ends of the resulting monosaccharides were fluorescence-labeled with 2-aminopyridine using GlycoTAG and GlycoTAG Reagent kit (both from Takara Shuzo). The sugar compositions were analyzed according to a conventional method by HPLC (Agric. Biol. Chem. 55, 283-284 (1991)) to determine the galactose contents in the respective protein fractions. […]

[1] = solubility of lyophilized modification products in water or PBS; format: physicochemical; conditions: dissolved in water or PBS
Excerpt: The modification products of bovine serum albumin and human immunoglobulin G separated using HPLC as described in Example 2 were adequately dialyzed against water and lyophilized. The lyophilized modification products and lyophilized unmodified counterparts for both of the proteins were similarly dissolved in water or PBS.

T1 sequence (P02769 25-607): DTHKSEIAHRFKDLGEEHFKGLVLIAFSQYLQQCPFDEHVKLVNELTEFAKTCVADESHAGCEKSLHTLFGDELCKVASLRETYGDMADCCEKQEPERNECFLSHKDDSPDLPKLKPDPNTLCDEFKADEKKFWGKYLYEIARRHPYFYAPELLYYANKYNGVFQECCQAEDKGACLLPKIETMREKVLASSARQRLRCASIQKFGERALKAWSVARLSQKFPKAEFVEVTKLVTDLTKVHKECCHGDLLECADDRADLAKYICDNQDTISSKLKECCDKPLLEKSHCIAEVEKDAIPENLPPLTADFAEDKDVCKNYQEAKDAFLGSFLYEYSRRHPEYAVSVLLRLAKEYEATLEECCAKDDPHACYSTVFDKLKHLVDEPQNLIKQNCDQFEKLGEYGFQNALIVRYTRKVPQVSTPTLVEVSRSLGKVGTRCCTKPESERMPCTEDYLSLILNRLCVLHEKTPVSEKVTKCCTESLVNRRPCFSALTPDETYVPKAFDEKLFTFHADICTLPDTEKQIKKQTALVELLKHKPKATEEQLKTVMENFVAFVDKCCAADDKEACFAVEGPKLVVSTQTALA

molecules of galactose attached to one molecule of the modification product (bovine serum albumin): eight
Substance: modification product of bovine serum albumin: bovine serum albumin reacted with the agarooligosaccharides in PBS at 37° C. for 24 hours
solubility compared with unmodified counterparts [1]: superior to that of the unmodified counterparts
